The experiment has as its target T1, His6-PLCβ2 (phospholipase Cβ2) (UniProt Q00722 1-1185, CPM (thiol-reactive coumarin) on Cys side chains where printed as CPM-PLCβ2; Dabcyl where printed as PLCβ2 with DAB acceptor; unlabelled elsewhere).
T1 construct: phospholipase C β2; called the full length / whole enzyme; printed mass 133.7 kDa; One construct used CPM-labelled, Dabcyl-labelled or unlabelled; also called PLCß2; CPM-PLCβ2; source: Sf9 cells, baculovirus system, purified
Description: other fluorescence titration; activated Gαq and PLCß2, without γ-synuclein; which partner was labelled is not stated. The conditions noted are these: both partners purified.

Broadly, the Kd is the concentration at which binding is half-saturated. A high value points to lower affinity.

T1 sequence (Q00722 whole entry): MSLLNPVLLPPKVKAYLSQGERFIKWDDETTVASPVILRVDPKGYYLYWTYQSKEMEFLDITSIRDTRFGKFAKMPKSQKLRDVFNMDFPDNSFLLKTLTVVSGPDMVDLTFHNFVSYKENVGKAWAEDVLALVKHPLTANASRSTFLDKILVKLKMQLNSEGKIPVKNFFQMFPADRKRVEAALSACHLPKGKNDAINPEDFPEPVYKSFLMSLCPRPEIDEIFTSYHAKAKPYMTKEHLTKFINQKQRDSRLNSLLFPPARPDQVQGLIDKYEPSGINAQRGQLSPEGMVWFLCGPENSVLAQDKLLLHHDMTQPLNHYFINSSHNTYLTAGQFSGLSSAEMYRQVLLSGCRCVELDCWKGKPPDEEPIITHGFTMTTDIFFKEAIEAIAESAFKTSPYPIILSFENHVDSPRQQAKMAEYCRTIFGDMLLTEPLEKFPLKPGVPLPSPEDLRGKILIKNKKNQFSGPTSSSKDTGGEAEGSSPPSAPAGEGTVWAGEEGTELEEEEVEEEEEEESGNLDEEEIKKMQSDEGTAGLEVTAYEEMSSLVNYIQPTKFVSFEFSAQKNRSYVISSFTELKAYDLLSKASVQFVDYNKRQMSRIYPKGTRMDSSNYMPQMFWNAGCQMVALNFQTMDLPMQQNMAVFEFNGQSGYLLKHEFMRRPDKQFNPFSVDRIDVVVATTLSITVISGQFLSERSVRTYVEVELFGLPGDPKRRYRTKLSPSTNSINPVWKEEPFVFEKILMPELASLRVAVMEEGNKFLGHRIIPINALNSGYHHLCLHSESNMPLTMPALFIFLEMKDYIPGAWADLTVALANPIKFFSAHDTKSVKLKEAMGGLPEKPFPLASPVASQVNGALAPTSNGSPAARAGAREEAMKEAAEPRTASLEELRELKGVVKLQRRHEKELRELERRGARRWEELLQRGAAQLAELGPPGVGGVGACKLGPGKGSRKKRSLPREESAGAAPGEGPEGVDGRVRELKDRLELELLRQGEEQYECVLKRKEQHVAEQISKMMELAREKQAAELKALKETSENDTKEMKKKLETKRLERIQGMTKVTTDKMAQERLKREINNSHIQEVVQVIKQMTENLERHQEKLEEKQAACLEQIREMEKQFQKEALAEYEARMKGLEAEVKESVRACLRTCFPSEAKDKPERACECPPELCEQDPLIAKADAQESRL

B1: Gαq(GTPγS) (natural protein, UniProt P50148 1-359, looked up)
chain: MTLESIMACCLSEEAKEARRINDEIERQLRRDKRDARRELKLLLLGTGESGKSTFIKQMRIIHGSGYSDEDKRGFTKLVYQNIFTAMQAMIRAMDTLKIPYKYEHNKAHAQLVREVDVEKVSAFENPYVDAIKSLWNDPGIQECYDRRREYQLSDSTKYYLNDLDRVADPAYLPTQQDVLRVRVPTTGIIEYPFDLQSVIFRMVDVGGQRSERRKWIHCFENVTSIMFLVALSEYDQVLVESDNENRMEESKALFRTIITYPWFQNSSVILFLNKKDLLEEKIMYSHLVDYFPEYDGPQRDAQAAREFILKMFVDLNPDSDKIIYSHFTCATDTENIRFVFAAVKDTILQLNLKEYNLV
notes: source: Sf9 cells, co-expressed with Gβ1 and His6-Gγ2
In the case of B1, the Kd amounted to 0.3 ± 0.2 nM.

Source of the values: publication PMC3414502, “γ-Synuclein Interacts with Phospholipase Cβ2 to Modulate G Protein Activation” (PLoS ONE, 2012).
